This is an account of results in article PMC12591191, “SIRT6 Lysine‐Demyristoylates ATF2 to Ameliorate Vascular Injury via PRKCD/VE‐Cadherin Pathway Regulating Vascular Endothelial Barrier” (Advanced Science, 2025).

Usually IC50 stands for the concentration that inhibits the measured activity by half. Usually Kd stands for the equilibrium constant for the complex coming apart. The low end stands for tighter binding, the high end for weaker binding.

Series [1] concerns SIRT6. The settings on record: SIRT6 inhibitor, cited from earlier work. The text has this:
Table 2 The inhibitors of SIRT6 were represented with structure, IC50, category, company, indications, and reference. | column: IC50

In another series the test system is B‐H3K9^Ac‐5R. Nature of the series: Deacetylase activity by HPLC. The settings on record: UV 220 nm, 6 µM enzyme, 450 µM peptide, Tris‐HCl pH 8.0, 6 mM MgCl2, 1 mM NAD^+, 30 °C, 4 h. The series is classed as biochemical. As to the method:
(§1) The expression plasmids were transformed in the E.coli Arctic Express (DE3) cells, respectively. The E.coli cells were cultured at 37 °C in 2X YT culture medium. When OD600 reached 0.8, cells were induced by 0.2 mM isopropyl‐1‐thio‐β‐D‐galactopyranoside (IPTG) for 18–20 h at 16 °C. Then, cells were harvested by centrifugation at 6000 rpm for 10min at 4 °C and resuspended in lysis buffer (20 mM Tris‐HCl pH 7.2, 500 mM NaCl, 2% glycerol). Cells were lysed by a high‐pressure homogenizer (Avestin), and centrifuged at 15 000 rpm for […] min at 4 °C. The supernatants were incubated with Ni^+ Sepharose (GE Healthcare) which was pre‐equilibrated in lysis buffer. The resin was washed with 20 column volumes of lysis buffer supplemented with 50 mM imidazole, and then the recombinant proteins were eluted with lysis buffer supplemented with 500 mM imidazole. The eluted fractions were pooled, buffer exchanged (20 mM Tris‐HCl pH 7.2, 250 mM NaCl, 10% glycerol), and concentrated. Finally, the endotoxin was removed by the Pierce High‐Capacity Endotoxin Removal Spin Columns. The purified proteins were stored at −80 °C.
(§2) The peptides B‐H3K9‐5R (biotin‐[…]), B‐H3K9^Ac‐5R (biotin‐KQTARK^Ac[…]), and B‐H3K9^Myr‐5R (biotin‐KQTARK^Myr[…]) were synthesized. Five arginine residues were added to ensure that the peptides were soluble in water. SIRT6 protein SIRT6 and mutants (6 µM) were incubated with the peptides (450 µM) in the reaction system ([…] Tris‐HCl pH 8.0, 6 mM MgCl2, 1 mM NAD^+) at 30 °C. After 4 h, the reactions were terminated by adding 4% TFA at 37 °C for 10 min. After centrifuging at 12 000rpm for 15 min at room temperature, the supernatants were collected and analyzed via HPLC using an Aeris peptide XB‐C18 column (150 × 4.6 mm, 3.6 µm; Phenomenex, USA). The mobile phase consisted of solvent A (0.1% TFA in HPLC‐grade H2O) and solvent B (0.1% TFA in HPLC‐grade acetonitrile). Peptides were eluted in a linear gradient of 0–90% solvent B at 1 ml min^−1 over 19 min. The column temperature was set at 25 °C, and the peptides were monitored with UV light (220 nm).

The next series deals with B‐H3K9^Myr‐5R. Nature of the series: Demyristoylase activity by HPLC. The series is classed as biochemical. To be noted: UV 220 nm, 6 µM enzyme, 450 µM peptide, Tris‐HCl pH 8.0, 6 mM MgCl2, 1 mM NAD^+, 30 °C, 4 h. As for the experimental part: as §1, §2
Series [2] relates to aortic endothelium (VE-Cadherin junction continuity). Nature of the series: En face VE-Cadherin staining of descending aortas. The series is classed as in vivo, mouse. As for the experimental part: Endothelial specific Sirt6 KO (ecSirt6^−/− ) mice (on a C57/Bl6J background) were developed by Cyagen Biosciences lnc. and litter of wild‐type (WT) mice served as control. Genotyping by tail preparation and PCR were performed at 2 weeks of age. All animal procedures were conducted under animal welfare guidelines and were approved by the Animal Ethics Committee of Zhongshan Hospital, Fudan University (EARIA‐389).
The cultivation and collection of mice were described above. Remove the outer membrane and longitudinally cut the thoracic aorta of mice for surface staining. After being fixed in 4% paraformaldehyde for 20 min, 0.5% Triton X‐100 was infiltrated into PBS for 30 min, and 10% normal goat serum was blocked in PBS for 1 h. Then, the corresponding primary antibody was incubated overnight at 4 °C. Then, wash HUVECs or tissues three times with PBS, coupled with the corresponding Alexa Fluor 488‐conjugated goat anti‐rabbit IgG (Thermo, cat#A‐11008) or Alexa Fluor 594 ‐conjugated goat anti‐mouse IgG (Thermo, cat#A‐11 005) (1:500; at room temperature, place in a closed solution for 1 h). Cover the slide with DAPI containing fluorine shielding adhesive medium. Randomly select representative images from each group. Fluorescence signal detection was performed using Leica confocal laser scanning microscope (Leica SP8).

The target of the next series is T1, SIRT6 H133Y (dSIRT6) (Homo sapiens, UniProt Q8N6T7, H133Y).
T1 construct: the full‐length human SIRT6 (1‐355aa) with the flag tag at the C‐terminus; made in house; host or cells: E. coli ArcticExpress (DE3), pET28a
T1 sequence (Q8N6T7 whole entry H133Y): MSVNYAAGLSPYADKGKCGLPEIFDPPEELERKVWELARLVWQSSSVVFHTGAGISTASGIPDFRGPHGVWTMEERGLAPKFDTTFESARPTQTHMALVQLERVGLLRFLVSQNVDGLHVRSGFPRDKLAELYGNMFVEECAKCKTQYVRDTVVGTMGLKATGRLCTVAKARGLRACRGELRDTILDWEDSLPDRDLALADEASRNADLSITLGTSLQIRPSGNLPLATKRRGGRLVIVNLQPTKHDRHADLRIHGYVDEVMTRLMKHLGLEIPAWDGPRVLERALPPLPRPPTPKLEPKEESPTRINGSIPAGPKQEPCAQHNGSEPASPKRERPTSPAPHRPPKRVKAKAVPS
Description: Co-immunoprecipitation enrichment of myristoylated peptide. The series is classed as binding. To be noted: Co-IP with negative control peptide, n=3. As to the method: SIRT6/mutants (10 µM) were incubated with B‐H3K9^Myr‐5R or B‐H3K9‐5R (7 µM) in different IP buffers based on buffer (1X PBS, 0.2% tween‐20) at 30 °C for 4h. Then the mixtures were incubated with magnetic flag‐beads at room temperature for 2h. Then, tubes were placed on a magnetic rack for 1 minute, and the supernatants were discarded. The beads were washed three times with an IP buffer and eluted with different elution buffers. The eluants and beads were then analyzed by western blotting with biotin monoclonal antibody or SIRT6 antibody.

Series [3] addresses T2, SIRT6 (Homo sapiens, UniProt Q8N6T7).
T2 construct: the full‐length human SIRT6 (1‐355aa) with the flag tag at the C‐terminus; His-tag (N); made in house; host or cells: E. coli ArcticExpress (DE3), pET28a
Nature of the series: Biolayer interferometry, SIRT6. To be noted: BLI, PBS-T, cofactor 5 mM. The format is binding. The text has this:
(§3) The plasmid pUC57‐SIRT6 contained the full‐length human SIRT6 (1‐355aa) with the flag tag at the C‐terminus. The PCR fragment SIRT6‐Flag from pUC57‐SIRT6 was inserted into pET28a vector to obtain the plasmid pET28a‐SIRT6. Then the pET28a‐SIRT6G60A, pET28a‐SIRT6R65A, pET28a‐SIRT6S56Y, and pET28a‐SIRT6H133Y expression plasmids were obtained through site‐directed mutagenesis by PCR. These SIRT6 expression plasmids were used for SIRT6 expression and purification in E.coli.
(§4) The expression plasmids were transformed in the E.coli Arctic Express (DE3) cells, respectively. The E.coli cells were cultured at 37 °C in 2X YT culture medium. When OD600 reached 0.8, cells were induced by 0.2 mM isopropyl‐1‐thio‐β‐D‐galactopyranoside (IPTG) for 18–20 h at 16 °C. Then, cells were harvested by centrifugation at 6000 rpm for 10min at 4 °C and resuspended in lysis buffer (20 mM Tris‐HCl pH 7.2, 500 mM NaCl, 2% glycerol). Cells were lysed by a high‐pressure homogenizer (Avestin), and centrifuged at 15 000 rpm for room temperature min at 4 °C. […]
(§5) To determinate the affinity of SIRT6 proteins to myristoylated peptides, BLI assays were performed in 96 well plates using an Octet Red96 System. […] Meanwhile, the protein‐peptide affinities were also determined after adding several cofactors (5 mM), such as Mg^2+, Zn^2+, ATP, ADP, AMP, cAMP, NAD^+.
(In BLI a coated tip is dipped into the sample, and binding shifts an interference pattern.)

For the next series, the target named is T3, SIRT6 G60A (Homo sapiens, UniProt Q8N6T7, G60A).
T3 construct: the full‐length human SIRT6 (1‐355aa) with the flag tag at the C‐terminus; made in house; host or cells: E. coli ArcticExpress (DE3), pET28a
T3 sequence (Q8N6T7 whole entry G60A): as the sequence (Q8N6T7 whole entry H133Y) above, with G60A, Y133H counted along it
Nature of the series: Biolayer interferometry, G60A mutant. The series is classed as binding. To be noted: BLI, Octet Red96, PBS-T, 120 µM biotin peptide on sensor, analyte G60A 0.18 to 5.5 µM.
Text: as §3, §4, §5

Series [4] relates to ATF2 localization and PRKCD/VE‐cadherin axis in HUVECs. Description: ALK14 versus myristic acid, ATF2 localization and PRKCD/VE-cadherin axis. The format is cell-based. To be noted: each 10 μg/ml, 12 hours. As to the method:
Protein samples were separated by SDS/PAGE and transferred to the PVDF membrane. The membrane was blocked with 5% BSA in TBST (25 mM Tris, pH 7.4, 150 mM NaCl, 0.1% Tween‐20), incubated with primary antibodies and secondary antibodies in TBST, and then treated with ECL Plus western blotting detection reagents (Bio‐rad). The chemiluminescence signal was analyzed by ChemiDoc imaging system (Bio‐rad).
HMEC‐1, obtained from Shanghai Zhong Qiao Xin Zhou Biotechnology, was cultured in MCDB131 medium containing 10% foetal bovine serum (FBS) and 1% antibiotics (penicillin and streptomycin) in 5% CO2 incubator at 37 °C. HUVEC, obtained from Shanghai Zhong Qiao Xin Zhou Biotechnology, were cultured in ECM medium containing 5% FBS, 1% antibiotics (penicillin and streptomycin) and 1% endothelial cell growth supplement (ECGS) in 5% CO2 incubator at 37 °C. HEK 293T were obtained from ATCC, and cultured in Dulbecco's modified Eagle's medium (DM EM) containing 10% FBS and 1% antibiotics (penicillin and streptomycin) in 5% CO2 incubator at 37 °C. The SIRT6 KO 293T cells were constructed by Hanbio Biotechnology, the SIRT6 gRNA was 5′‐[…]‐3′. SIRT6 overexpression and knockdown recombinant lentivirus were constructed by Hanbio Biotechnology, the vector pGLV3‐harboring SIRT6 and SIRT6 shRNA (5′‐[…]‐3′) were used for lentivirus packaging. […]

Read-outs that look alike come from different tables or passages of the source. Where a SMILES comes first, the peptide text is derived from it. The star is where a group is joined. Biotin = O=C1N[C@H]2[C@H](CS[C@H]2CCCCC(=O)*)N1; Myristoyl = CCCCCCCCCCCCCC(=O)*

T2 sequence (Q8N6T7 whole entry): as the sequence (Q8N6T7 whole entry H133Y) above, with Y133H counted along it

Consider `O=C(Nc1ccc(O)c(C(=O)O)c1)c1cccc(NC(=O)c2ccco2)c1` [OSS‐128167], for which, in the series on SIRT6 [1] (ref [68]), the IC50 was 89 µM.

In the case of `CN1CCN(c2ccc([N+](=O)[O-])c(N)c2)CC1` [5‐(4‐methylpiperazin‐1‐yl)‐2‐nitroaniline], in the series on SIRT6 [1] (ref [65]), the IC50 was 4.93 µM.

Turning to R65A: SIRT6 R65A mutant, the deacetylase activity entry in the series with B‐H3K9^Ac‐5R is “weak deacetylase activity”. Besides, the demyristoylase activity entry with B‐H3K9^Myr‐5R was “lacked demyristoylase activity”.

As for “SIRT6 WT: full‐length human SIRT6 (1‐355aa) with the flag tag at the C‐terminus, expressed in E.coli”, the deacetylase activity result in the series with B‐H3K9^Ac‐5R is on record as “weak deacetylase activity”. Further, the demyristoylase activity result with B‐H3K9^Myr‐5R was “significant demyristoylase activity”.

For `Cc1nn(C)c(C)c1NS(=O)(=O)c1c(Cl)cc(-c2ccnc(N3CCNCC3)c2)cc1Cl` [DDD85646], the therapeutic efficacy entry in series [2] (100 mg kg^−1 day^−1, n = 6–8) was “suboptimal therapeutic efficacy”.

Consider H133Y: SIRT6 H133Y mutant, for which the deacetylase activity entry with B‐H3K9^Ac‐5R is recorded as “lacked both enzymatic activities”. In addition, in the series with B‐H3K9^Myr‐5R, the demyristoylase activity entry is “lacked both enzymatic activities”. The “selectivity of H133Y for myristoylated peptide” value with SIRT6 H133Y (dSIRT6) is reported as “confirmed the selectivity”.

As for S56Y: SIRT6 S56Y mutant, the deacetylase activity result in the series on B‐H3K9^Ac‐5R was “lacked both enzymatic activities”. In addition, the demyristoylase activity entry in the series with B‐H3K9^Myr‐5R is recorded as “lacked both enzymatic activities”.

`NC(=O)c1ccc[n+]([C@@H]2O[C@H](COP(=O)([O-])O)[C@@H](O)[C@H]2O)c1` [NMN]: in series [2] (NMN 100 mg kg^−1 day^−1, n = 6–8), the “endothelial damage induced by high‐fat diet in SIRT6‐deficient endothelium” value is “partially rescued endothelial damage”.

Regarding `Nc1ncnc2c1ncn2[C@@H]1O[C@H](COP(=O)(O)OP(=O)(O)OP(=O)(O)O)[C@@H](O)[C@H]1O` [ATP], the “effect of cofactor on SIRT6 affinity for B‐H3K9^Myr‐5R” value on SIRT6 [3] is reported as “significantly enhanced SIRT6 affinity”.

For `Nc1ncnc2c1ncn2[C@@H]1O[C@H](COP(=O)(O)OP(=O)(O)O)[C@@H](O)[C@H]1O` [ADP], at SIRT6 [3], the “effect of cofactor on SIRT6 affinity for B‐H3K9^Myr‐5R” value is listed as “significantly enhanced SIRT6 affinity”.

On to `CCCCCCCCCCCCCC(=O)NCCCC[C@H](NC(=O)[C@H](CCCNC(=N)N)NC(=O)[C@H](C)NC(=O)[C@@H](NC(=O)[C@H](CCC(N)=O)NC(=O)[C@H](CCCCN)NC(=O)CCCC[C@@H]1SC[C@@H]2NC(=O)N[C@@H]21)[C@@H](C)O)C(=O)N[C@@H](CO)C(=O)N[C@H](C(=O)NCC(=O)NCC(=O)N[C@@H](CCCCN)C(=O)N[C@@H](C)C(=O)N[C@@H](CCCNC(=N)N)C(=O)N[C@@H](CCCNC(=N)N)C(=O)N[C@@H](CCCNC(=N)N)C(=O)N[C@@H](CCCNC(=N)N)C(=O)N[C@@H](CCCNC(=N)N)C(=O)O)[C@@H](C)O` [B‐H3K9^Myr‐5R] (Biotin-KQTARK(Myristoyl)STGGKARRRRR-OH), for which, at SIRT6 G60A, the Kd worked out at 1.3 ± 0.11 µM.

Regarding G60A: SIRT6 G60A mutant, the deacetylase activity entry in the series on B‐H3K9^Ac‐5R is “without detectable deacetylase activity”. In the series on B‐H3K9^Myr‐5R, the demyristoylase activity entry is “strong demyristoylase activity”.

`CCCCCCCCCCCCCC(=O)O` [natural myristic acid, Myristic acid]: in series [4], the “impact on ATF2 localization and PRKCD/VE‐cadherin axis, myristic acid versus ALK14” value is listed as “equivalent impacts”.

As for Diquercetin, in the series with SIRT6 [1] (ref [64]), the IC50 was 130 µM.
